Among the data in article PMC11770335, “Transcriptome-scale analysis uncovers conserved residues in the hydrophobic core of the bacterial RNA chaperone Hfq required for small regulatory RNA stability” are binding result and Kd values, retold here.

As a reminder, the Kd is a measure of binding affinity in units of concentration.

What all share (conditions): protein: recombinant; chain copies: 6; single strand
The target of data set [1] is T1, Hfq V22A (Escherichia coli, UniProt P0A6X3 1-102, V22A). The data set is described as follows: X-ray crystallography; one pA4 traced at distal face (Methods says proximal); 0.2 M LiSO4, 0.05 M zinc acetate, Bis-Tris pH 7.5; ITC: 20 mM Tris-HCl pH 7.5, 100 mM NaCl, 20 mM KCl, 30°C; plus 5 mM MgCl2 for U6; Hfq hexamer 10-18 µM in cell.
The target in data set [2] is T2, Hfq G34A (Escherichia coli, UniProt P0A6X3 1-102, G34A). The data set is described as follows: ITC; 5 mM MgCl2; N 0.83 RNA/hexamer; second weaker event offset; ITC: 20 mM Tris-HCl pH 7.5, 100 mM NaCl, 20 mM KCl, 30°C; plus 5 mM MgCl2 for U6; Hfq hexamer 10-18 µM in cell. A general note: ITC needs no label: the signal is the heat of the interaction.
Data set [3] has as its target T3, Hfq WT (Escherichia coli, UniProt P0A6X3 1-102). As to the kind of experiment: ITC; 5 mM MgCl2; N 0.96 RNA/hexamer; second weaker event offset; ITC: 20 mM Tris-HCl pH 7.5, 100 mM NaCl, 20 mM KCl, 30°C; plus 5 mM MgCl2 for U6; Hfq hexamer 10-18 µM in cell.
Data set [4] addresses T1, Hfq V22A. As to the kind of experiment: ITC; 5 mM MgCl2; N 1.02 RNA/hexamer; second weaker event offset; ITC: 20 mM Tris-HCl pH 7.5, 100 mM NaCl, 20 mM KCl, 30°C; plus 5 mM MgCl2 for U6; Hfq hexamer 10-18 µM in cell.
Data set [5] has as its target T2, Hfq G34A. As to the kind of experiment: ITC; no Mg2+ listed; N 0.75 RNA/hexamer; ITC: 20 mM Tris-HCl pH 7.5, 100 mM NaCl, 20 mM KCl, 30°C; plus 5 mM MgCl2 for U6; Hfq hexamer 10-18 µM in cell.
Data set [6] has as its target T3, Hfq WT. As to the kind of experiment: ITC; no Mg2+ listed; N 1.31 RNA/hexamer; ITC: 20 mM Tris-HCl pH 7.5, 100 mM NaCl, 20 mM KCl, 30°C; plus 5 mM MgCl2 for U6; Hfq hexamer 10-18 µM in cell.
Data set [7] has as its target T1, Hfq V22A. The data set is described as follows: ITC; no Mg2+ listed; N 1.43 RNA/hexamer; ITC: 20 mM Tris-HCl pH 7.5, 100 mM NaCl, 20 mM KCl, 30°C; plus 5 mM MgCl2 for U6; Hfq hexamer 10-18 µM in cell.

B1: pA4 (ssRNA)
RNA: AAAA
With B1, the binding result in data set [1] is on record as “binds”.

B2: U6 (ssRNA)
RNA: UUUUUU
Regarding B2, the dissociation constant (Kd) in data set [2] came out at 19.3 ± 8.3 nM; in data set [3], 42.2 ± 12.8 nM; in data set [4] it was 56.6 ± 7.5 nM.

B3: A17 (ssRNA)
RNA: AAAAAAAAAAAAAAAAA
B3: the values for the dissociation constant (Kd) in data set [5], in data set [6] and in data set [7] were 26.3 ± 13.2 nM, 51.5 ± 18 nM and 10.5 ± 3.4 nM, respectively.
